Measurements reported in patent publication US20240336673A1 (WEST VIRGINIA UNIVERSITY BOARD OF GOVERNERS ON BEHALF OF …, published 2024).

Tests used:
[1] = molecular target: T1, FliC protein at the surface of P. aeruginosa PAO1 (Pseudomonas aeruginosa PAO1, UniProt P72151 1-488); test: direct ELISA of hybridoma supernatant on whole P. aeruginosa PAO1
T1 construct: whole, on cells; Native protein on whole bacteria or in lysates; also called P. aeruginosa PAO1 flagellin; type b flagellin
T1 sequence: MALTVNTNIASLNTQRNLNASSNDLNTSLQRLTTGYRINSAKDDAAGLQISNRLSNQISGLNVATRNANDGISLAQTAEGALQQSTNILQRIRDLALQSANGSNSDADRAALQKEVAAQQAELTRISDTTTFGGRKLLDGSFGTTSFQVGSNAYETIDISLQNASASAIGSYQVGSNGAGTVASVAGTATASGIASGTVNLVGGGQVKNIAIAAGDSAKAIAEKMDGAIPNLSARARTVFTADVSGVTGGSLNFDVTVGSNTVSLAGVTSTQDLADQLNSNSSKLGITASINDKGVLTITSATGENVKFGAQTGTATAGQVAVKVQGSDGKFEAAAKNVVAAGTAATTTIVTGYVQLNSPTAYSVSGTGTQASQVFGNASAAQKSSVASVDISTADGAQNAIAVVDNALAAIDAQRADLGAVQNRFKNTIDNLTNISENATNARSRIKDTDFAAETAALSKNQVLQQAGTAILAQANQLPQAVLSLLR

[2] = molecular target: T2, purified recombinant FliC from P. aeruginosa (polyHis-tag FliC protein, gene from P. aeruginosa PAO1) (Pseudomonas aeruginosa PAO1, UniProt P72151 1-488); test: direct ELISA of hybridoma supernatant on coated recombinant FliC
T2 construct: also called P. aeruginosa flagellin; purified FliC protein from P. aeruginosa; not shown: polyhistidine tag
T2 sequence: T1 sequence

B1: WVDC-2109 (antibody, V domains shown)
VH: EVQLQESGAELVKPGASVKLSCKASGYTFTSYWMHWVKQRPGQGLEWIGMIRPNSGSTNYNEKFKSKATLTVDKSSSTAYMQLSSPTSEDSAVYYCARRGYGSSYGYYAMDYWGQGTSVTVSS
VL: DIVVTQTTSSLSASLGDRVTISCRASQDISNYLNWYQQKPDGTVKLLINYTSRLNSGVPSRFSGSGSGTDYSLTISNLEQEDIATYFCQQGNTLPWTFGGGTKLE
notes: also called anti-FliC mAb; mAb WVDC-2109
- binding result [1]: binds
- binding result [2]: binds
